Residue numbers refer to the chain shown, from its start.

First the molecules themselves.
T1: human fibrinogen (HCI-0150R, Haematologic Technologies) (human, UniProt P02671 20-629; P02675 31-491; P02679 27-437, limits assumed)
T1 construct: Chain composition is general knowledge
T1 sequence (looked up) 1: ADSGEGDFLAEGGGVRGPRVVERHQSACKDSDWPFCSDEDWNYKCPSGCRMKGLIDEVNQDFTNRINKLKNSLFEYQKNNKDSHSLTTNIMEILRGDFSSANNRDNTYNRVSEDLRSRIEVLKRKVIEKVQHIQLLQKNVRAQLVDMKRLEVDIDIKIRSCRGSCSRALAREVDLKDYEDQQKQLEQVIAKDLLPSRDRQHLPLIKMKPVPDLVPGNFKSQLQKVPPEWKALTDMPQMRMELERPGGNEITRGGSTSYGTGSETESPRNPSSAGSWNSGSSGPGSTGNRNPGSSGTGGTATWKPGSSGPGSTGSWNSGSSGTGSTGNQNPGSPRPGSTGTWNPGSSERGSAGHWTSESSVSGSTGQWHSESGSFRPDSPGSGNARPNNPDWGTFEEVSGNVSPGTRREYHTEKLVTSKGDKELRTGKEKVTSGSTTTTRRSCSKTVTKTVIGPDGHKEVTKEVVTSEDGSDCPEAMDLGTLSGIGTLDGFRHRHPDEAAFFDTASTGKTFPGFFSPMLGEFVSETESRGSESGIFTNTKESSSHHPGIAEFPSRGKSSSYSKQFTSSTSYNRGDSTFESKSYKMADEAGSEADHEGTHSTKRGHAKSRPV
T1 sequence (looked up) 2: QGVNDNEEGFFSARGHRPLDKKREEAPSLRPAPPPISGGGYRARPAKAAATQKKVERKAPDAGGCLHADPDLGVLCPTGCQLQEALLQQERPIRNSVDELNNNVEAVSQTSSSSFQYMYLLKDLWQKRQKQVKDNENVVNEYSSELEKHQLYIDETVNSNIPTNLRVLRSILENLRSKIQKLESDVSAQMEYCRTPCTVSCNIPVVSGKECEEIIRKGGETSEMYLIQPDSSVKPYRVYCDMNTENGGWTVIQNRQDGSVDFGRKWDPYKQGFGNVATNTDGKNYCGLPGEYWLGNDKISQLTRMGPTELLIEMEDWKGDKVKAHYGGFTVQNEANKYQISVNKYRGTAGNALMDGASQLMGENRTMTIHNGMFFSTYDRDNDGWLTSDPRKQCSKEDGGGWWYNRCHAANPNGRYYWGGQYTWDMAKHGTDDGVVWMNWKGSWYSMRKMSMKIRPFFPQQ
T1 sequence (looked up) 3: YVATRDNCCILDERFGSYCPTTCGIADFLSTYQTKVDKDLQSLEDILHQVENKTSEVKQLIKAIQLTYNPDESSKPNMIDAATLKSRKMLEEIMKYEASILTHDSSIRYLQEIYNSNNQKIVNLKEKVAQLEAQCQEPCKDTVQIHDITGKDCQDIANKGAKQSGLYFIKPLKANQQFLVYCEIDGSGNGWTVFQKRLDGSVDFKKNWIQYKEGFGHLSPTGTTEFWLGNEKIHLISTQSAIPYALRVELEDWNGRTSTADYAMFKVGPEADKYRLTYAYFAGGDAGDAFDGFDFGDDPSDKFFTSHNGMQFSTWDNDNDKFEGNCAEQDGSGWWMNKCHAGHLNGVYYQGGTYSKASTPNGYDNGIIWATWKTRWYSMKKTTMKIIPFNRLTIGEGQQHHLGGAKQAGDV

T2: hTLT-1 ECD-HPC4 M91A (human, UniProt Q86YW5 16-162)
T2 construct: As m27; also called Ala mutant 24
T2 chain: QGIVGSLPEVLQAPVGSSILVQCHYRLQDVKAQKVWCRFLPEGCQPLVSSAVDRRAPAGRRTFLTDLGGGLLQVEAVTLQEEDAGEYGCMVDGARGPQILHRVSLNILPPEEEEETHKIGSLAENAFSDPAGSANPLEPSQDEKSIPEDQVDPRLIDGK

T3: hTLT-1 ECD-HPC4 F54A (human, UniProt Q86YW5 16-162)
T3 construct: As m27; also called Ala mutant 12
T3 chain: T2 chain with F39A, A76M

T4: hTLT-1 ECD-HPC4 R117A (human, UniProt Q86YW5 16-162)
T4 construct: As m27; also called Ala mutant 32
T4 chain: T2 chain with A76M, R102A

T5: hTLT-1 ECD-HPC4 S119A (human, UniProt Q86YW5 16-162)
T5 construct: As m27; also called Ala mutant 33
T5 chain: T2 chain with A76M, S104A

B1: TLT1 (human TLT-1, reagent of the SPR studies, source NN) (receptor)
chain: QGIVGSLPEVLQAPVGSSILVQCHYRLQDVKAQKVWCRFLPEGCQPLVSSAVDRRAPAGRRTFLTDLGGGLLQVEMVTLQEEDAGEYGCMVDGARGPQILHRVSLNILPPEEEEETHKIGSLAENAFSDPAGSANPLEPSQDEKSIP
B2: mAb 0051 HC2; LC2 (antibody, V domains shown)
VH: QVQLEQSGAELVRPGVSVKISCKGSGYTFTDYSMHWVKQSHAKSLEWIGVISTYYGDVRYNQKFKGKATMTVDKSSSTAYMALARLTSEDSAIYYCARAPMITTGAWFAYWGQGTLVTVSA
VL: SIVMTQTPKFLLVSAGDRVTITCKASQSVSNDVAWYQQKPGQSPKLLINYASSRYTGIPDRFTGSGYGTDFTFTISTVQAEDLAVYFCQQDYSSPYTFGGGTKLEIER
notes: also called 0197-0000-0051

Assay [1] concerns the target T1, human fibrinogen (HCI-0150R, …). As to the kind of experiment: SPR (Biacore T100), TLT1 immobilised on CM5, fibrinogen as analyte. The protocol:
(§1) Human TLT1 was immobilised to a level of approx 1000 RU on a CM5 chip (50 μg/ml diluted in Na-acetate, pH 4.0) using the standard procedure recommended by the supplier. Four-fold dilutions of human fibrinogen from 200 nM to 0.2 nM were tested for binding to the immobilized TLT1. Running and dilution buffer: 10 mM HEPES, 150 mM, 0.005% p20, pH 7.4. Regeneration was obtained by 10 mM Glycine, pH 1.7. Determination of kinetic and binding constants (kₒₙ, koff, KD) was obtained assuming a 1:1 interaction of TLT1 and fibrinogen using the Biacore T100 evaluation software.

The target is the same in assay [2]. Nature of the assay: SPR (Biacore T100), TLT1 immobilised on CM5, fibrinogen 200 nM to 0.2 nM as analyte. The protocol: as §1
For another assay, the target named is T2, hTLT-1 ECD-HPC4 M91A. As to the kind of experiment: SPR (ProteOn), mAb captured by anti-hFc, 100 nM mutant, signal 10 s after injection normalised to captured mAb. As to the method:
(§2) Each anti-body was diluted in 10 mM sodium acetate pH 5.0 to a concentration of […], and was immobilized to an individual flow cell at 30 μl/min for 240s. The antibodies were immobilized to flow cells A1-A6 (horizontal direction). After immobilization, the active sites on the flow cell were blocked with 1 M ethanolamine. The final immobilization level of capture antibody typically ranged from approximately 9,000 to 10,000 RU in one experiment. Capture of the anti-TLT1 antibodies 0197-0000-0023, 0197-0000-0051, 0197-0000-0061 and 0197-0000-0062 was conducted by diluting to […] into HBS-EP buffer (10 mM HEPES, 150 mM NaCl, 3 mM EDTA, 0.05% surfactant P20, pH 7.4) and injected at 30 μl/min for 60s in vertical direction, creating interspot reference points with only anti-human Fc antibodies. The final capture level of test antibodies typically ranged from approximately 200 to 300 RU in one experiment. Binding of wt or Ala mutant hTLT-1 ECD-HPC4 protein was conducted by injecting over parallel flow cells in horizontal direction to allow for comparative analyses of binding to different captured anti-TLT1 antibodies relative to binding to the interspot references. Each hTLT-1 ECD-HPC4 protein was diluted to 100 nM, based on the calculated average Mw, into HBS-EP buffer and injected at 30 μl/min for 240s. The GLM chip was regenerated after each injection cycle of analyte via one 18 s injection of 1 M Formic acid followed by a 18s injection of 50 mM NaOH at 100 μl/min. This regeneration step removed the anti-TLT1 antibody and any bound TLT1 from the immobilized capture antibody surface, and allowed for the subsequent binding of the next test sample pair.
(§3) Data analysis was performed using the ProteOn Manager™ Software. No significant non-specific binding to the interspot control surfaces was observed. Binding curves were processed by double referencing (subtraction of interspot control surface signals as well as blank buffer injections over captured anti-TLT1 antibodies). This allowed correction for instrument noise, bulk shift and drift during sample injections. Binding signal at 10 s after stop of analyte injection was normalized to level of captured anti-TLT1 antibody and presented as binding relative to wt hTLT-1 ECD-HPC4 protein.

Another assay addresses T3, hTLT-1 ECD-HPC4 F54A. Described as above. As to the method: as §2, §3
Another assay has as its target T4, hTLT-1 ECD-HPC4 R117A. The description is as above. As to the method:
as §2, §3

The next assay concerns the target T5, hTLT-1 ECD-HPC4 S119A. Described as above. As to the method: as §2, §3
Assay [3] deals with B1. Nature of the assay: SPR (Biacore), mAb immobilised directly on CM5, TLT1 as analyte. The protocol: The mAbs of interest were either immobilized directly to a CM5 chip or by capture via a human Fc capture mAb immobilized to a CM5 chip.
Direct capture: The TLT-1 mAbs were immobilised to a level of approx 500-1000 RU on a CM5 chip (50 μg/ml diluted in Na-acetate, pH 4.0) using the standard procedure recommended by the supplier. Two-fold dilutions of TLT1 from 200 nM to 0.2 nM were tested for binding to the mABs. Running and dilution buffer: 10 mM HEPES, 150 mM, 0.005% p20, pH 7.4. Regeneration was obtained by 10 mM Glycine, pH 1.7.

In assay [1], B1 registered a dissociation constant (Kd) of 94 nM and a koff of 0.000392 s⁻¹. In addition, in assay [2], the kon is 4170 M⁻¹ s⁻¹.

In the case of B2, the “binding relative to wt hTLT-1 ECD-HPC4” value with hTLT-1 ECD-HPC4 M91A was < 0.2 fraction of wt binding; with hTLT-1 ECD-HPC4 F54A, < 0.4 fraction of wt binding; with hTLT-1 ECD-HPC4 R117A, < 0.2 fraction of wt binding; in the assay with hTLT-1 ECD-HPC4 S119A it was < 0.6 fraction of wt binding. Besides, the Kd in assay [3] was determined as 19.3 nM. In assay [3], this molecule returned a koff of 0.00472 s⁻¹. This molecule also showed a kon in assay [3] of 245000 M⁻¹ s⁻¹.

What is called Kd is the constant that tells how readily two partners part at equilibrium. As usually defined, the koff is the rate constant with which the complex falls apart. Read a high koff as fast dissociation. The kon is a measure of how fast the partners come together. Higher therefore signals faster complex formation.

The values are drawn from patent US20120178908A1 (Novo Nordisk, published 2012).
